Read-outs that look alike come from different tables or passages of the source.
Tests used:
V5 peptide [1] = target: T1, V5 peptide (Parainfluenza virus 5 (strain W3) …); assay: ITC
T1 chain: GKPIPNPLLGLDST

V5 peptide [2] = target: T1, V5 peptide; assay: ITC

B1: NbV5 (VHH)
VHH: EVQLQASGGGFVQPGGSLRLSCAASGTTSFGDTMGWFRQAPGKEREFVSAISRQGDKHYYADSVKGRFTISRDNSKNTVYLQMNSLRAEDTATYYCAEWMNTRREFITPYWGQGTQVTVSS
Kd (V5 peptide [1]): ~218 nM | Kd (V5 peptide [2]): 574 nM

Source: doi:10.1101/2023.02.05.527200 (bioRxiv, 2023)
